The values below come from patent US20130129763A1 (ARNE FORSGREN, published 2013).

Like-named read-outs stand apart in the source and are kept apart here.

Assay [1] deals with UspA1 on the surface of M. catarrhalis (clinical isolates BBH18 and RH4) (Moraxella catarrhalis). In words: flow cytometry on M. catarrhalis RH4 ΔuspA2 (UspA1 left on the surface) incubated with EDTA-treated normal human serum: rabbit anti-C3d pAb + FITC anti-rabbit pAb; same column: wild type mfi 5.4, Δmid mfi 5.7 (both carry UspA1 and UspA2), ΔuspA1/A2 mfi 0.8. For orientation: A flow cytometer gives signals particle by particle.

The target in assay [2] is UspA2 on the surface of M. catarrhalis (clinical isolates BBH18 and RH4) (Moraxella catarrhalis). The experiment in a line: flow cytometry on M. catarrhalis RH4 ΔuspA1 (UspA2 left on the surface) incubated with EDTA-treated normal human serum: rabbit anti-C3d pAb + FITC anti-rabbit pAb; same column: wild type mfi 5.4, Δmid mfi 5.7 (both carry UspA1 and UspA2), ΔuspA1/A2 mfi 0.8.

The target of assay [3] is UspA1 on the surface of M. catarrhalis (clinical isolates BBH18 and RH4) (Moraxella catarrhalis). The experiment in a line: flow cytometry on M. catarrhalis RH4 ΔuspA2 (UspA1 left on the surface) incubated with C3met: rabbit anti-C3d pAb + FITC anti-rabbit pAb; same column: wild type mfi 22.1, Δmid mfi 23.4 (both carry UspA1 and UspA2), ΔuspA1/A2 mfi 0.3.
Assay [4] addresses UspA2 on the surface of M. catarrhalis (clinical isolates BBH18 and RH4) (Moraxella catarrhalis). The experiment in a line: flow cytometry on M. catarrhalis RH4 ΔuspA1 (UspA2 left on the surface) incubated with C3met: rabbit anti-C3d pAb + FITC anti-rabbit pAb; same column: wild type mfi 22.1, Δmid mfi 23.4 (both carry UspA1 and UspA2), ΔuspA1/A2 mfi 0.3.
Assay [5] has as its target T1, Engelbreth-Holm-Swarm mouse sarcoma laminin (Sigma) (mouse, UniProt P19137 25-3083; P02469 22-1786; P02468 34-1607).
T1 construct: also called soluble laminin
In words: ELISA: 40 nM protein coated, laminin 20 µg/ml, rabbit anti-laminin pAb + HRP anti-rabbit pAb.

For assay [6], the target named is T2, fibronectin (Sigma), soluble (UniProt P02751 32-2296).
T2 construct: also called soluble fibronectin; 125I-labeled fibronectin
T2 sequence (P02751 other isoform, or with tags, fused parts or gaps limits assumed): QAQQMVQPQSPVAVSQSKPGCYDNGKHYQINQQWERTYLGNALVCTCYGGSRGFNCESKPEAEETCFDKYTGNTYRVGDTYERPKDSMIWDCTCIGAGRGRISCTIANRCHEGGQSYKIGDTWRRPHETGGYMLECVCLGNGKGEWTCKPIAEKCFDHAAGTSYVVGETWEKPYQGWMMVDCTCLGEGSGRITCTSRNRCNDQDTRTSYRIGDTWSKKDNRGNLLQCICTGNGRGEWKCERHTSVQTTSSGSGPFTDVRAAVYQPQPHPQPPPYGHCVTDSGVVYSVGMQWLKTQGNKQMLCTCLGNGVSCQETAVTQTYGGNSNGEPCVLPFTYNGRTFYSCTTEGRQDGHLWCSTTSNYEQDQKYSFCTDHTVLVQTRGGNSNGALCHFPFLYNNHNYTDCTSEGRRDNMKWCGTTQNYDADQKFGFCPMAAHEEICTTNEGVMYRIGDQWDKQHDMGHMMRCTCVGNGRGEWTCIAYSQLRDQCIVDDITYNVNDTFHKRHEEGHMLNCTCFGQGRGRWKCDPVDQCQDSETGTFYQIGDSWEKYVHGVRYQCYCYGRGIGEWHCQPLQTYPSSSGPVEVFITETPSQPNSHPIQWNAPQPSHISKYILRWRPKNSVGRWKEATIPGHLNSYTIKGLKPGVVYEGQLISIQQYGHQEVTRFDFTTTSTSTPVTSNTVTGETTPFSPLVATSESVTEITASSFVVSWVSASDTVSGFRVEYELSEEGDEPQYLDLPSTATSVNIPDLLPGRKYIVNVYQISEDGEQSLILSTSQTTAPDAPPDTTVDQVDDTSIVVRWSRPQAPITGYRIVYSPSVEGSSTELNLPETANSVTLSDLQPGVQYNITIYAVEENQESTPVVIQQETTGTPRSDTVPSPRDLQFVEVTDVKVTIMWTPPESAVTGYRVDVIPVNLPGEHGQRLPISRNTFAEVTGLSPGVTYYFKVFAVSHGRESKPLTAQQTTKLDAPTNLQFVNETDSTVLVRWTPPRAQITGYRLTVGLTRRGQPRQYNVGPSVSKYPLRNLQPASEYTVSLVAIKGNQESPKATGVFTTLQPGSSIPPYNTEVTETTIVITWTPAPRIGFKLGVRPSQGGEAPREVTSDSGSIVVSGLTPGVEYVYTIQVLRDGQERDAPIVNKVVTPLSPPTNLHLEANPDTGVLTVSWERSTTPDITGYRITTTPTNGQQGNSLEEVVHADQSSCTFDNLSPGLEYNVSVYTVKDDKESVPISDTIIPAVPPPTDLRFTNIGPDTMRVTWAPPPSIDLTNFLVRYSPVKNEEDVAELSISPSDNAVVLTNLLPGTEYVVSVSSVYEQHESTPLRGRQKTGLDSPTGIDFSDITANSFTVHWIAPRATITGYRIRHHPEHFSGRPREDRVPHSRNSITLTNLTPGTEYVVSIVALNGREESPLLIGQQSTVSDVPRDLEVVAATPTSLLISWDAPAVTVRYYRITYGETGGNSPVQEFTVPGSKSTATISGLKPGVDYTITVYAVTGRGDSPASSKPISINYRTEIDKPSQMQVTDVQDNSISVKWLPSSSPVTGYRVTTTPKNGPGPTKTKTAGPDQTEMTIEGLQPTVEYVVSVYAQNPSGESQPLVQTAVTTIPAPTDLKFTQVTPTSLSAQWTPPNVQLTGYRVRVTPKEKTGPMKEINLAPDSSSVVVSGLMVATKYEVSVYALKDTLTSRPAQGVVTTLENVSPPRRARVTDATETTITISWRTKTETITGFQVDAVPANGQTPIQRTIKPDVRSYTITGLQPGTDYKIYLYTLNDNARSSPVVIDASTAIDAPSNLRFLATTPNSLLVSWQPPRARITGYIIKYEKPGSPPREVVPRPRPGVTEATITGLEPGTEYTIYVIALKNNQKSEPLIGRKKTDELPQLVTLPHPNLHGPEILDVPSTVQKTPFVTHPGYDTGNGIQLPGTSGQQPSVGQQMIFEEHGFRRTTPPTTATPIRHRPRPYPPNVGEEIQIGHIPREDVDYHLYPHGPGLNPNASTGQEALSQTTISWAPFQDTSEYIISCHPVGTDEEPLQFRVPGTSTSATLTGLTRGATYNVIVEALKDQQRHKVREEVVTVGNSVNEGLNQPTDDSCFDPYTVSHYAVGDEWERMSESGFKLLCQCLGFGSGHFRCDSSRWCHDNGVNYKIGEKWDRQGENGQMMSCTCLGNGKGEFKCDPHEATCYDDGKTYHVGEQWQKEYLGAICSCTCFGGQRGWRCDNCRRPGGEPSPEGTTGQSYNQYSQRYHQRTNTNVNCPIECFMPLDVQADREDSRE
The experiment in a line: ELISA: 40 nM fragment coated, fibronectin 80 µg/ml, rabbit anti-fibronectin pAb + HRP anti-rabbit pAb. Background: An ELISA detects its analyte on a solid surface through an enzyme-linked reagent.

For assay [7], the target named is T2, fibronectin (Sigma), soluble. In words: competition, flow cytometry: fibronectin pre-incubated with the UspA1 fragment, then M. catarrhalis added; fibronectin left bound to the bacteria detected with anti-fibronectin pAb.
Assay [8] concerns the target T1, Engelbreth-Holm-Swarm mouse sarcoma …. In words: ELISA: 40 nM protein coated, laminin 20 µg/ml, rabbit anti-laminin pAb + HRP anti-rabbit pAb. This is another data set of the same source.
Assay [9] deals with T2, fibronectin (Sigma), soluble. In words: ELISA: 40 nM fragment coated, fibronectin 120 µg/ml, rabbit anti-fibronectin pAb + HRP anti-rabbit pAb.
Assay [10] addresses T1, Engelbreth-Holm-Swarm mouse sarcoma …. The experiment in a line: ELISA: 40 nM UspA2 30-539 coated, soluble laminin titrated in three-fold steps 0.03-60 µg/ml, rabbit anti-laminin pAb + HRP anti-rabbit pAb.
Assay [11] deals with T3, methylamine-treated C3 (C3met) (human, UniProt P01024 23-667; P01024 672-1663).
T3 construct: mature; also called C3b-like molecule; [125I]-C3met
T3 sequence (P01024 23-667 limits assumed, chain 1 of 2): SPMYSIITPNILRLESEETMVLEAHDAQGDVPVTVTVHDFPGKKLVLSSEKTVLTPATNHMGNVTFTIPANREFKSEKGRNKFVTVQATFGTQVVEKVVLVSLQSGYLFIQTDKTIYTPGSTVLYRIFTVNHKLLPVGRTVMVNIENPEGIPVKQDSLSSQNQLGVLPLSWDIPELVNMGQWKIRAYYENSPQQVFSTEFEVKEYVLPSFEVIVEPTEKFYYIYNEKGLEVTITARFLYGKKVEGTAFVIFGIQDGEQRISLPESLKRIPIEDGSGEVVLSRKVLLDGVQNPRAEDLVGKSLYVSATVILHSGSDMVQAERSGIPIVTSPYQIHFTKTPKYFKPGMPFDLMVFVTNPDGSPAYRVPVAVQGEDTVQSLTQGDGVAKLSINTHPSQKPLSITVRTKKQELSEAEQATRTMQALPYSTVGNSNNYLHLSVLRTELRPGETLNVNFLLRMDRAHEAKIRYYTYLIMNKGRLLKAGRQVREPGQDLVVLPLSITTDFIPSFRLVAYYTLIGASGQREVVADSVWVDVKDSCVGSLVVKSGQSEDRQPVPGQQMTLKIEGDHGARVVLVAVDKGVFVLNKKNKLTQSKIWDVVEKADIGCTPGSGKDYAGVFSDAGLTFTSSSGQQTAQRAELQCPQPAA
T3 sequence (P01024 672-1663 limits assumed, chain 2 of 2): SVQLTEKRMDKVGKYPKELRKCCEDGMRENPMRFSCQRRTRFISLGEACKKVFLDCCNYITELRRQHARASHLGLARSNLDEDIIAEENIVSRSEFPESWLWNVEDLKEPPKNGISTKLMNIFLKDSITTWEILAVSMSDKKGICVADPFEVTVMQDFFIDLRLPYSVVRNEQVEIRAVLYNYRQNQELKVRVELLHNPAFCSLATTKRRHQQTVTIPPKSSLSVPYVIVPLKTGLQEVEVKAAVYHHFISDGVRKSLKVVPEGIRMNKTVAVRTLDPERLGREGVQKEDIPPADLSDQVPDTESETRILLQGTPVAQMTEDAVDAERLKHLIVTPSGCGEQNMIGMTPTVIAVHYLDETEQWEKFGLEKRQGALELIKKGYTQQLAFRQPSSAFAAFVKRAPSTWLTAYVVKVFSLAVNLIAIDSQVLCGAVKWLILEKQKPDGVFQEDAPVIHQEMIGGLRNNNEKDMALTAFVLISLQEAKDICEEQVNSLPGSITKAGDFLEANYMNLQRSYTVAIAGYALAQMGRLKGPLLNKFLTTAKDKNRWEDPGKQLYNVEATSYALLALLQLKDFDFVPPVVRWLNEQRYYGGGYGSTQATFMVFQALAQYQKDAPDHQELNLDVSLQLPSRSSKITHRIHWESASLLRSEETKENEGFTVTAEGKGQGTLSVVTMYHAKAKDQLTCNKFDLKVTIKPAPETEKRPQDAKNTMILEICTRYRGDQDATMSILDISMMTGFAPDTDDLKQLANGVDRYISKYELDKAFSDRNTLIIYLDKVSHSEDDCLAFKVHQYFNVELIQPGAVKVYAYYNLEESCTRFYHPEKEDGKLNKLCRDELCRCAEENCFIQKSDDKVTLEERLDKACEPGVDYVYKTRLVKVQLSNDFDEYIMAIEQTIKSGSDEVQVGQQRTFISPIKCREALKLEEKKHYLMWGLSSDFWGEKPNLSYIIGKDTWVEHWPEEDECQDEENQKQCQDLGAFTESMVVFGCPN
In words: SPR (Biacore 2000), UspA protein amine-coupled on CM5 chip, C3met injected, steady state affinity model; UspA2^30-539 on the chip. In general terms: SPR reads the build-up and loss of mass on a sensor chip optically.

The target of assay [12] is T1, Engelbreth-Holm-Swarm mouse sarcoma …. The experiment in a line: ELISA: 40 nM protein coated, laminin 20 µg/ml, rabbit anti-laminin pAb + HRP anti-rabbit pAb. This is another data set of the same source.
For assay [13], the target named is T3, methylamine-treated C3 (C3met). In words: ELISA: 40 nM protein coated, C3met in solution, goat anti-human C3 pAb + HRP anti-goat pAb, background subtracted.
The target of assay [14] is T1, Engelbreth-Holm-Swarm mouse sarcoma …. In words: ELISA: 40 nM protein coated, laminin 20 µg/ml, rabbit anti-laminin pAb + HRP anti-rabbit pAb. The source holds these as a separate data set.

As to “complement C3 in normal human serum (from UniProt P01024 23-667; P01024 672-1663)”, the mfi in assay [1] amounted to 1.4; in assay [2], 3.9. For “methylamine-treated C3 (C3met) (from UniProt P01024 23-667; P01024 672-1663)”, the mfi in assay [3] came out at 2.7; in assay [4] it was 14.9.

B1: recombinant UspA1^50-197 (other)
chain: KVGKATNKISGGDNNTANGTYLTIGGGDYNKTKGRYSTIGGGLFNEATNEYSTIGSGGYNKAKGRYSTIGGGGYNEATNQYSTIGGGDNNTAKGRYSTIGGGGYNEATIENSTVGGGGYNQAKGRNSTVAGGYNNEATGTDSTIAGGR
On to B1, for which the binding result in [5] and in assay [6] was “no binding” throughout.

B2: recombinant UspA1^557-704 (other)
chain: NENKDGIAKNQADIQLHDKKITNLGILHSMVARAVGNNTQGVATNKADIAKNQADIANNIKNIYELAQQQDQHSSDIKTLAKVSAANTDRIAKNKAEADASFETLTKNQNTLIEQGEALVEQNKAINQELEGFAAHADVQDKQILQNQ
As for B2, the binding result in assay [5] and in assay [7] was “no binding” throughout.

B3: recombinant UspA2^30-177 (other)
chain: QAKNDITLEDLPYLIKKIDQNELEADIGDITALEKYLALSQYGNILALEELNKALEELDEDVGWNQNDIANLEDDVETLTKNQNAFAEQGEAIKEDLQGLADFVEGQEGKILQNETSIKKNTQRNLVNGFEIEKNKDAIAKNNESIED
On to B3, for which the binding result in [8] was “binds”; in [9], “no binding”.

B4: recombinant UspA2^30-539 (M. catarrhalis Bc5) (other)
chain: QAKNDITLEDLPYLIKKIDQNELEADIGDITALEKYLALSQYGNILALEELNKALEELDEDVGWNQNDIANLEDDVETLTKNQNAFAEQGEAIKEDLQGLADFVEGQEGKILQNETSIKKNTQRNLVNGFEIEKNKDAIAKNNESIEDLYDFGHEVAESIGEIHAHNEAQNETLKGLITNSIENTNNITKNKADIQALENNVVEELFNLSGRLIDQKADIDNNINNIYELAQQQDQHSSDIKTLKKNVEEGLLELSDHIIDQKTDIAQNQANIQDLATYNELQDQYAQKQTEAIDALNKASSENTQNIEDLAAYNELQDAYAKQQTEAIDALNKASSENTQNIEDLAAYNELQDAYAKQQAEAIDALNKASSENTQNIAKNQADIANNITNLYELAQQQDKHRSDIKTLAKTSAANTDRIAKNKADDDASFETLTKNQNTLIEKDKEHDKLITANKTAIDANKASADTKFAATADAFTKNGNAITKNAKSITDLGTKVDGFDSRVTALDT
notes: also called UspA^230-539 [sic]
For orientation: EC50 (read off the curve) means the concentration needed to bring the measured effect to its halfway point. A word on the Kd: it is the equilibrium constant for the complex coming apart. Read a high Kd as weaker binding. On to B4, for which the “EC50 (read off the curve)” value in [10] was approximately 3 mg/L. The molecule further came in with a Kd in [11] of 3 µM.

B5: recombinant UspA2^302-458 (other)
chain: IQDLATYNELQDQYAQKQTEAIDALNKASSENTQNIEDLAAYNELQDAYAKQQTEAIDALNKASSENTQNIEDLAAYNELQDAYAKQQAEAIDALNKASSENTQNIAKNQADIANNITNLYELAQQQDKHRSDIKTLAKTSAANTDRIAKNKADDDA
B5: the binding result in assay [12] is on record as “no binding”.

B6: recombinant UspA2^101-318 (other)
chain: LEDDVETLTKNQNAFAEQGEAIKEDLQGLADFVEGQEGKILQNETSIKKNTQRNLVNGFEIEKNKDAIAKNNESIEDLYDFGHEVAESIGEIHAHNEAQNETLKGLITNSIENTNNITKNKADIQALENNVVEELFNLSGRLIDQKADIDNNINNIYELAQQQDQHSSDIKTLKKNVEEGLLELSDHIIDQKTDIAQNQANIQDLATYNELQDQYAQK
Take B6: the binding result in assay [12] is on record as “no binding”.

B7: UspA2 446-539 (other)
recombinant truncated protein: TDRIAKNKADDDASFETLTKNQNTLIEKDKEHDKLITANKTAIDANKASADTKFAATADAFTKNGNAITKNAKSITDLGTKVDGFDSRVTALDT
Take B7: the binding result in [13], in assay [9] and in [12] was “no binding” in each case.

B8: UspA1 454-770 (other)
recombinant truncated protein: KADLTKDIKALESNVEEGLLDLSGRLIDQKADIAKNQADIAQNQTDIQDLAAYNELQDAYAKQQTEAIDALNKASSANTDRIATAELGIAENKKDAQIAKAQANENKDGIAKNQADIQLHDKKITNLGILHSMVARAVGNNTQGVATNKADIAKNQADIANNIKNIYELAQQQDQHSSDIKTLAKVSAANTDRIAKNKAEADASFETLTKNQNTLIEQGEALVEQNKAINQELEGFAAHADVQDKQILQNQADITTNKTAIEQNINRTVANGFEIEKNKAGIATNKQELILQNDRLNRINETNNHQDQKIDQLGYAL
As to B8, the binding result in assay [5] was “no binding”.

B9: recombinant UspA1^50-321 (other)
chain: KVGKATNKISGGDNNTANGTYLTIGGGDYNKTKGRYSTIGGGLFNEATNEYSTIGSGGYNKAKGRYSTIGGGGYNEATNQYSTIGGGDNNTAKGRYSTIGGGGYNEATIENSTVGGGGYNQAKGRNSTVAGGYNNEATGTDSTIAGGRKNQATGKGSFAAGIDNKANADNAVALGNKNTIEGENSVAIGSNNTVKKGQQNVFILGSNTDTTNAQNGSVLLGHNTAGKAATIVNSAEVGGLSLTGFAGASKTGNGTVSVGKKGKERQIVHVGA
On to B9, for which the binding result in assay [5] and in assay [7] was “no binding” throughout.

B10: recombinant UspA1^50-491 (other)
chain: KVGKATNKISGGDNNTANGTYLTIGGGDYNKTKGRYSTIGGGLFNEATNEYSTIGSGGYNKAKGRYSTIGGGGYNEATNQYSTIGGGDNNTAKGRYSTIGGGGYNEATIENSTVGGGGYNQAKGRNSTVAGGYNNEATGTDSTIAGGRKNQATGKGSFAAGIDNKANADNAVALGNKNTIEGENSVAIGSNNTVKKGQQNVFILGSNTDTTNAQNGSVLLGHNTAGKAATIVNSAEVGGLSLTGFAGASKTGNGTVSVGKKGKERQIVHVGAGEISDTSTDAVNGSQLHVLATVVAQNKADIKDLDDEVGLLGEEINSLEGEIFNNQDAIAKNQADIKTLESNVEEGLLDLSGRLLDQKADIDNNINNIYELAQQQDQHSSDIKTLKNNVEEGLLDLSGRLIDQKADLTKDIKALESNVEEGLLDLSGRLIDQKADIAKNQA
notes: also called N-terminal half of UspA1
For the molecule B10, the binding result in [14] is reported as “binds”.

B11: recombinant UspA1^680-770 (other)
chain: KAINQELEGFAAHADVQDKQILQNQADITTNKTAIEQNINRTVANGFEIEKNKAGIATNKQELILQNDRLNRINETNNHQDQKIDQLGYAL
On to B11, for which the binding result in assay [5] and in [7] was “no binding” each time.

B12: recombinant UspA1^433-580 (other)
chain: KTLKNNVEEGLLDLSGRLIDQKADLTKDIKALESNVEEGLLDLSGRLIDQKADIAKNQADIAQNQTDIQDLAAYNELQDAYAKQQTEAIDALNKASSANTDRIATAELGIAENKKDAQIAKAQANENKDGIAKNQADIQLHDKKITNL
For the molecule B12, the binding result in assay [5] and in [7] was “no binding” throughout.

B13: recombinant UspA2^165-318 (other)
chain: KDAIAKNNESIEDLYDFGHEVAESIGEIHAHNEAQNETLKGLITNSIENTNNITKNKADIQALENNVVEELFNLSGRLIDQKADIDNNINNIYELAQQQDQHSSDIKTLKKNVEEGLLELSDHIIDQKTDIAQNQANIQDLATYNELQDQYAQK
notes: also called UspA2^165-316; UspA2^155-318 (misprints)
Consider B13, for which the binding result in [12] is recorded as “no binding”.
